{
  "source": "paper PMC5614712",
  "about": "(Biochemistry and Biophysics Reports, 2017)",
  "target": "the molecule itself",
  "assay": "crystal structure",
  "data": [
    {"protein": "Y93H ttCK (uridine-cytidine kinase TTHA0578 of Thermus thermophilus HB8, Tyr93 replaced by His) (enzyme) MSAPKPFVIGIAGGTASGKTTLAQALARTLGERVALLPMDHYYKDLGHLPLEERLRVNYDHPDAFDLALYLEHAQALLRGLPVEMPVYDFRAHTRSPRRTPVRPAPVVILEGILVLYPKELRDLMDLKVFVDADADERFIRRLKRDVLERGRSLEGVVAQYLEQVKPMHLHFVEPTKRYADVIVPRGGQNPVALEMLAAKALARLARMGAA", "values": [
      {"measurement": "stoichiometry N", "result": 4}
    ]}
  ]
}
